Measurements taken from patent US20170233470A1 (INSERM INSTITUT NATIONAL DE LA SANT ET DE LA RECHERCHE M …, published 2017).

Target: Neurotensin (NTS) (UniProt P30990 151-163)
Test: cell-based or functional assay

apoptosis of A2780 cells (Annexin V-FITC/PI, flow cytometry), fold increase relative to control cells: 2.5 fold | apoptosis of SKOV3 cells (Annexin V-FITC/PI, flow cytometry), fold increase relative to control cells: 8.2 fold
B1: NTSp27-7.4 (antibody, V domains shown)
VH: DVKLVESGGGLVKLGGSLKLSCAASGFTFSGYYMSWVRQTPEKRLELVAAINNYGDNTNYPDTVKGRFSVSRDNAKNTLYLEMNSLKSEDTALYYCARLANYANQRGAMDYWGQGTSVTVSS
VL: DIQMTHTTSSLSASLGDRVTISCRASQDIANYLNWYQQKPDGTVTLLIYYTSRLHSGVPSRFSGSGSGTDYSLTINNLDQEDIATYFCQQGYTLPPTFGGGTKLEIK
